Laboratory results reported in the supplement of paper PMC9170038.

System: MS2 coat protein
Assay: apparent KD of MS2 coat protein; designed switch direction (-1 OFF switch, 1 ON switch): 1; higher = weaker reporter binding
How it was run: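 Each step of the titration lasted 0.8–1.5 h at the lowest concentration and 10–20 min at the highest. The protein, SNAP-549-labelled MS2 coat protein, went from 0.7 or 1.5 nM doubling to 3 µM over RNA switches transcribed on Illumina chips by stalled E. coli RNA polymerase. Normalised cluster fluorescence was curve-fitted, and the per-design median over clusters is given as apparent KD.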

[1] = Eterna round: R95, input ligand: FMN 200 uM
[2] = Eterna round: R95, input ligand: microRNA oligo, concentration not stated
[3] = Eterna round: R95, input ligand: none
[4] = input ligand: microRNA oligo, concentration not stated

| Sequence | apparent KD of MS2 coat protein [1] [nM] | apparent KD of MS2 coat protein [2] [nM] | apparent KD of MS2 coat protein [3] [nM] | apparent KD of MS2 coat protein (input ligand: FMN 200 uM) [nM] | apparent KD of MS2 coat protein [4] [nM] | apparent KD of MS2 coat protein (input ligand: none) [nM] |
| --- | --- | --- | --- | --- | --- | --- |
| GGAGCCGGCACUGAGGAUAUUCAUAUUAAAACAUGAGGAUCACCCAUGUAGGCCAGAAGGCCUUGGGAGAAGGCGGAUCGGCUCG [Xeonanis - 14] (puzzle: Same State 2) | 78.7 | 181 | 1070 | – | – | – |
| AACCCAAUGGAAGGAUAUGGCACCUUAUUGGUGCCAGAAGGUCCUAACAUGAGGAUCACCCAUGUGGGCCGGUCGAAAGACCGG [Fiskers NG1ss - 6] (Eterna round: R96, puzzle: Same State NG 1) | – | – | – | 106 | 306 | 656 |
| CUGCUCGUGUGAGGAUAUGCCGCCGUUUCGGCUGCAGAAGGUGCUACGUUACAUGAGGAUCACCCAUGUCUCUGUUGUUUCGUC [salish99_SSNG1_r04_946] (Eterna round: R96, puzzle: Same State NG 1) | – | – | – | 25.6 | 18.7 | 31.3 |
| UGUUGUAUUACAGGAUAUCUAGUAAUUUUAUUUAGAGAAGGGUAUUCACAUGAGGAUCACCCAUGUAUAUACGAGGAAGUUGUG [JMF's solution 35] (Eterna round: R96, puzzle: Same State NG 1) | – | – | – | – | 27.8 | – |
| UGUUAACAUGAGGAUCACCCAUGUCAAAUGAAUCGAGGAUAUGGGAAGUAAUAAGAUAAACUAGAAGGCGAAGUUG [Altered State 1-1 - Jieux - Same State 1] (puzzle: Same State 1) | 358 | 106 | 195 | – | – | – |
| AAGAACAAGCGAAAGGCCCGUCUUAUAUAACAUGAGGAUCACCCAUGUAAGGUGAAAGUUAGAGAGUGGAGGUUGAA [JR_SHM208A_Sub047] (puzzle: Sensor for hsa-mir-208a) | 284 | 282 | 340 | – | – | – |
| ACGCAGCUGGGUAAGGAUAUCGGUGGUAAAACAUGAGGAUCACCCAUGUCCGAAGCUCGGACUUCCGAGAAGGUGCCCGGCUGCG [Soinraesar Omei Mod 6] (puzzle: Same State 2) | 23.8 | 222 | 218 | – | – | – |
| GCCAUCGCAUGAGGAUAUGGCACCGUUUCGGUGCCAGAAGGCAUGUCAAUUGACAUGAGGAUCACCCAUGUAUUAUUGAUGGCA [JL Fiskers NG1ss - 33 mod 7] (Eterna round: R96, puzzle: Same State NG 1) | – | – | – | 55.6 | 448 | 860 |
| UGUUGUAUUACAGGAUAUCUAUGAUUGUUAUUUAGAGAAGGGUAUUCACAUGAGGAUCACCCAUGUAUAUACGAGGAAGUUGUG [JMF's solution 60] (Eterna round: R96, puzzle: Same State NG 1) | – | – | – | 52.3 | 36.7 | 50.6 |
| AAGAAAGUUUACGAGGAUAUGUUCCGCAUAACAUGAGGAUCACCCAUGUGAACAAGAAAGGCGACGCAGAAGGCGUGAGCAAAAG [Mat - Same State 2 - Mod of UCT - D97] (puzzle: Same State 2) | 105 | 199 | 412 | – | – | – |
| CUCAAACAUGAGGAUCACCCAUGUGUUGUCAUGGGAGGAUAUCCAAGUUCGUUGUAGUCGGGAGAAGGCCUAUGUC [× ×•×ª×• ×ž×“×™× ×” × ×—×ª-12] (puzzle: Same State 1) | – | 139 | – | – | – | – |
| UAUUAGAUCCGAGGAUAUCCUUAUAAGAAACAUGAGGAUCACCCAUGUAAAGGGAAUUAUUUGUAGGAGAAGGCGGAUUUAGUU [JR_SSNG2_Sub055] (Eterna round: R96, puzzle: Same State NG 2) | – | – | – | 28.9 | 23 | 41.3 |
| CCGUAGAUGGUAGGAUAUGGAGCCUUAUUGGCUCCAGAAGGAUCGAAACAUGAGGAUCACCCAUGUUCGGCGGUCAAUAGACCG [Eli NG1ss - 85] (Eterna round: R96, puzzle: Same State NG 1) | – | – | – | 22.5 | 17.6 | 23.9 |
| CAUCUAUACUUAGGAUAUGUAGGAUAUGCCUACAUGAGGAUCACCCAUGUUCGCAUGGCAGAAGGACAGAAGGAAGAACUACUU [pwkr ssNG2 2FMN + 1F5.5] (Eterna round: R96, puzzle: Same State NG 2) | – | – | – | 94.3 | 57.3 | 266 |
| GUUACAUGAGGAUCACCCAUGUAUGUGUGGGAGUAAGUGUCUUAGGAUAUCUAGUUUUUAAUUUAAGAGAAGGAAGAUUGUUGU [JMF's solution 52] (Eterna round: R96, puzzle: Same State NG 3) | – | – | – | 151 | 67.2 | 114 |
| GGUGUACAUGAGGAUCACCCAUGUCGACCGCUCACAGGAUAUUUAAUACAAACUGGUAGCGGAGAAGGGUGAGGAA [Oresbeve] (Eterna round: R96, puzzle: Same State 1) | – | – | – | 523 | 160 | 188 |

| Sequence | apparent KD of MS2 coat protein [1] [nM] | apparent KD of MS2 coat protein [2] [nM] | apparent KD of MS2 coat protein [3] [nM] | apparent KD of MS2 coat protein (input ligand: FMN 200 uM) [nM] | apparent KD of MS2 coat protein [4] [nM] | apparent KD of MS2 coat protein (input ligand: none) [nM] |
| --- | --- | --- | --- | --- | --- | --- |
| GGUCCAGCCUGAGCUGGACAAAAGCAUGUACAUGAGGAUCACCCAUGUCAUGUACAAGCUUUUUGCUCGUUUUAAAA [JL mod - D87 - 14] (puzzle: Sensor for hsa-mir-208a) | 527 | 14.5 | 576 | – | – | – |
| AUAAACAGGCUAGGAUAUCCGGAAACUACAGGGCACAACCCUAUAGACAUGAGGAUCACCCAUGUGGAGAAGGAGCCACAUGAA [Ceesis] (Eterna round: R96, puzzle: Same State NG 2) | – | – | – | 40.6 | 156 | 195 |
| GUUAAACAUGAGGAUCACCCAUGUAAUAAUAUGGGAGGAUAUCAGAAAUUAUGUAUGAAAUGAGAAGGCCUAAUUG [Mat - Same State 1 - Mod of Eli - D79] (puzzle: Same State 1) | 89.8 | 244 | 198 | – | – | – |
| GUAGCAUACCGAGGAUAUUCAUAUAAUAAAUAACAUGAGGAUCACCCAUGUUGGCGAAAGCCUUGGGAGAAGGCGGAAUGCUAC [Xeonanis - 20 Mod56] (Eterna round: R96, puzzle: Same State NG 2) | – | – | – | 13.5 | 45.8 | 55.5 |
| AUGCCAAAACGAGGAUAUGGAGCCUUAUUGGCUCCAGAAGGUGUGACAUGAGGAUCACCCAUGUGGCAGUGGUCUAAUGACCAC [Eli NG1ss - 40] (Eterna round: R96, puzzle: Same State NG 1) | – | – | – | 94.2 | 105 | 133 |
| GAGUGGCAGUUAGGAUAUAUAGUGAUAAUCACAAUAGAAGGAACAGACAUGAGGAUCACCCAUGUAGGACUAAUCCAGAGAGAG [Parity 37 - Jieux - Same State NG 1] (Eterna round: R96, puzzle: Same State NG 1) | – | – | – | 19.2 | 16.4 | 23.4 |
| UUUAGUUGCGCGCAGGAUAUGUAUUAAUAUACAUGAGGAUCACCCAUGUGAGACCAAAUAGGUCUACAGAAGGGCGAAUCGCGAC [Laonerce - 29] (Eterna round: R96, puzzle: Same State 2) | – | – | – | 42.6 | 182 | 354 |
| UGGUACAUGGGAGGAUAUGGAGUGAUGACAUGAGGAUCACCCAUGUUAUAUAUGCCGAGAGGCAACUAGAAGGCCCAUGUACCU [JL SSNG1 3.97] (Eterna round: R96, puzzle: Same State NG 2) | – | – | – | 19.4 | 121 | 137 |
| GAGUAGUUGAAAGGAUAUUGAUUGUUGUAGGAUCAAGAAGGUUCUAACAUGAGGAUCACCCAUGUAGGACUAUUCCUGUGUAUC [Parity 86 - Jieux - Same State NG 1] (Eterna round: R96, puzzle: Same State NG 1) | – | – | – | 8.27 | 8.09 | 11.9 |
| CUGAAAUGUCAAGGAUAUCACGUCGAUUAGACGUGAGAAGGUGAUCUACACAUGAGGAUCACCCAUGUGUUACGUGGGAGUCAG [Brourd's SSNG1/1-A2 mod 18] (Eterna round: R96, puzzle: Same State NG 1) | – | – | – | 82.1 | 104 | 171 |
| AACAUGAGGACAUGAACAUGAGGAUCACCCAUGUAUGUUUAUAAGGAUAUAUGAGGAGGAGGAGAAUAGAAGGUAUAGGGAGGG [This also seems to work] (Eterna round: R96, puzzle: Same State NG 3) | – | – | – | 45 | 35.5 | 43.2 |
| UUUAUACAUGAGGAUCACCCAUGUCAAUGUAGUCGAGGAUAUGGGCAGCCGUGAGGCGUACUAGAAGGCGAAGAGG [JL-ss1-3.09 ViennaUCT mod] (puzzle: Same State 1) | – | 117 | – | – | – | – |
| GAGGAUGAUUUACAGGAUAUAUAGGAGAUGACAUGAGGAUCACCCAUGUAGGAGAUAGGAGUGAGAUAGAAGGGUAAGUGAUGUG [JR_SS2_Sub43] (puzzle: Same State 2) | 58.9 | 122 | 114 | – | – | – |
| GGUCCAGCCUGAGCUGGACAAAAGCAUGUACAUGAGGAUCACCCAUGUUCAUGUACAAGCUUUUUGCUCGUCUUACA [salish99_208a_r3_084] (puzzle: Sensor for hsa-mir-208a) | 485 | 14.8 | 443 | – | – | – |
| CGCCAGAGAACAGGAUAUGGGCCGCGGCCUAUGGGCUGCUAACUCACAUGAGGAUCACCCAUGUCCCAGAAGGGUUCCUGGCGG [Xediat] (Eterna round: R96, puzzle: Same State NG 2) | – | – | – | 472 | 23.1 | 262 |
